Where a chain is given by its changes, count along the chain named.
Tests used:
cyno IL-13 = target: T1, cyno IL-13 (cynomolgus monkey, UniProt Q0PW92 21-132); assay: Gyrolab in-solution affinity, 48 h incubation; 95% CI 5.8-7.5 pM
T1 construct: also called cynomolgus monkey IL-13
Description: (§1) Under receptor-controlled measurements a serial dilution of OX40L (ranging from 1.3 μM-0.031 μM), IL-13 (ranging from 0.1 μM-0.25 fM), or serum albumin (ranging from 100 μM-3.2 μM) and a fixed amount of ISVD construct F027100187 (5 nM in case of OX40L, […] in case of IL-13 and 30 nM in case of HSA and cyno SA) were mixed to allow interaction and incubated for either 24 or 48 hours (in case of OX40L and IL-13) or 2 hours (in case of serum albumin) to reach equilibrium.
(§2) Biotinylated human OX40L/IL-13/serum albumin was captured in the microstructures of a Gyrolab Bioaffy 1000 CD, which contains columns of beads and was used as a molecular probe to capture free F027100187 from the equilibrated solution. The mixture of OX40L/IL13/serum albumin and F027100187 (containing free OX40UIL-13/serum albumin, free F027100187 and OX40L/IL13/serum albumin—F027100187 complexes) was allowed to flow through the beads, and a small percentage of free F027100187 was captured, which is proportional to the free ISVD construct concentration. A fluorescently labeled anti-ISVD antibody, ABH0086-Alexa647, was then injected to label any captured F027100187 and after rinsing away excess of fluorescent probe, the change in fluorescence was determined. Fitting of the dilution series was done using Gyrolab Analysis software, where KD- and receptor-controlled curves were analyzed to determine the KD value.

human IL-13 [1] = target: T2, human IL-13 (human, UniProt P35225 35-146, limits assumed); assay: Gyrolab in-solution affinity, 48 h incubation; 95% CI 6.4-9.1 pM
T2 construct: Recombinant soluble protein; also called hIL-13; soluble hIL-13
Description: as §1, §2

human IL-13 [2] = target: T2, human IL-13; assay: flow cytometry on CHO-KI cells expressing human OX40L loaded with 100 nM F027100187, dilution series of soluble human IL-13 in the presence of 30 uM HSA (bridging / simultaneous binding; x axis printed as 'Concentration human IL-13-Fc (M)', text says biotinylated IL-13)
Description: Using flow cytometry, it was determined whether ISVD construct F0271000187 can bind simultaneously to recombinant soluble hIL-13 and cell membrane bound hOX40L. […] Subsequently the mixture was incubated with a dilution series of biotinylated IL-13 starting from 500 nM down to […], and incubated for 30 min at 4° C., in the presence of 30 μM HSA. Cells were washed 3 times and subsequently incubated with PE-labelled […] for 30 min at 4° C., washed again. Samples were washed and resuspended in FACS Buffer (D-PBS with 10% FBS and 0.05% sodium azide supplemented with 5 nM TOPRO3). Cell suspensions were then analyzed on a iQuescreener.

[3] = target: T3, membrane bound cyno OX40L on CHO-KI cells (cynomolgus monkey, UniProt G7NVH7 1-183); assay: cell-based or functional assay
T3 sequence: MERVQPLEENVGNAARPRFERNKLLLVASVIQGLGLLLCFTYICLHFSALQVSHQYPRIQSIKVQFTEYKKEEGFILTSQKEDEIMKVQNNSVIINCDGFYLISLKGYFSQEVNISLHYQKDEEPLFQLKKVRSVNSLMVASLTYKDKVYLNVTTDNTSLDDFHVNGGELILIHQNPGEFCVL

[4] = target: T4, membrane bound human OX40L on CHO-KI cells (human, UniProt P23510 1-183); assay: cell-based or functional assay
T4 sequence (looked up): T3 sequence with Q55R, E73K

cyno serum albumin = target: T5, cyno serum albumin (cynomolgus monkey); assay: Gyrolab in-solution affinity, 2 h incubation; 95% CI 9.0-12.3 nM
T5 construct: also called cyno SA; cynomolgus monkey serum albumin
Description: as §1, §2

human serum albumin = target: T6, human serum albumin (human, UniProt P02768 25-609); assay: Gyrolab in-solution affinity, 2 h incubation; 95% CI 5.5-7.6 nM
T6 construct: also called HSA; HAS
Description: as §1, §2

T2 sequence (P35225 35-146 limits assumed): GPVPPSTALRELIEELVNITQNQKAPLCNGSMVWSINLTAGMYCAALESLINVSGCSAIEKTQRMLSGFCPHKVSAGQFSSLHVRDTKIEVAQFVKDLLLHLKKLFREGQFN
T5 sequence (A2V9Z4 25-608): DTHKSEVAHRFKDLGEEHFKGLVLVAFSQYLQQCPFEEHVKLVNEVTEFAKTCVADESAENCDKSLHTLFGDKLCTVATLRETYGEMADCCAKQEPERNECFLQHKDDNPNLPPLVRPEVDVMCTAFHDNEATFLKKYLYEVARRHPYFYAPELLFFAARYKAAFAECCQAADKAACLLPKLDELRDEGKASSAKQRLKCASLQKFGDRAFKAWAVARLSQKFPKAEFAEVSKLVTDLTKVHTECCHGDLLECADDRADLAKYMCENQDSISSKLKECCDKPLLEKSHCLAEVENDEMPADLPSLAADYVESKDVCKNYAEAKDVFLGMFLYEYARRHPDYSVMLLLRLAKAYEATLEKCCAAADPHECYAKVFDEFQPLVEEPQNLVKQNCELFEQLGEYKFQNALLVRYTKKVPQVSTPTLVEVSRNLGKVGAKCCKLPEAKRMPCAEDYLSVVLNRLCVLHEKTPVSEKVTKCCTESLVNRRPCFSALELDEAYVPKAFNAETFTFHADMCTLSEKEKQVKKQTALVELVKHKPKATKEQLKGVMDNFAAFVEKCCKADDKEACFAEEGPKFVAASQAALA
T1 sequence (Q0PW92 entry or part of it): as the sequence (P35225 35-146 limits assumed) above, with G1S, R10K, M42V, S67N, H83R, L100V counted along it
T6 sequence (P02768 25-609 limits assumed): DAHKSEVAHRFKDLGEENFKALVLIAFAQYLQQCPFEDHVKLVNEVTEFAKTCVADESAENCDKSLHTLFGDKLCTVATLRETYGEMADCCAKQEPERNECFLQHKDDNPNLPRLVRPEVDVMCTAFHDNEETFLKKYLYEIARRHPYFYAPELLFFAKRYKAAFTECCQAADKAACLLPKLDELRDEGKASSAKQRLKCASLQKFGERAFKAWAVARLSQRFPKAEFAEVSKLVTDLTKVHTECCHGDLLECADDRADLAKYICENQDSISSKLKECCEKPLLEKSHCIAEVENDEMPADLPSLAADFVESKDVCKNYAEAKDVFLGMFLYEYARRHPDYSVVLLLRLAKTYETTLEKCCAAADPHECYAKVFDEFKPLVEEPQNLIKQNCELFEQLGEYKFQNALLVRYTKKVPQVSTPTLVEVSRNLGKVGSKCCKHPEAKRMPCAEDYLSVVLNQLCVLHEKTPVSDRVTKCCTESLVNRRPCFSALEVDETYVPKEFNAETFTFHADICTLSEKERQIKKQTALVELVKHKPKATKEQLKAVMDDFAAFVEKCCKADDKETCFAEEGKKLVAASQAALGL

Kd (cyno IL-13): 0.0067 nM
Kd (human IL-13 [1]): 0.0078 nM
EC50 (read off the curve) (human IL-13 [2]): ~20 nM
PBMC activity assay IC50 [3]: 14 nM
PBMC activity assay IC50 [4]: 1.9 nM
Kd (cyno serum albumin): 10.6 nM
Kd (human serum albumin): 6.6 nM
B1: ISVD construct F027100187 (other)
chain: DVQLVESGGGVVQPGGSLRLSCAASRSIGRYDRMGWYRHRPGEPRELVATITGGSSINYGDSVKGRFTISIDNSKNTVYLQMNSLRPEDTALYYCNFNKYQISRDTWGQGTLVTVSSGGGGSGGGSEVQLVESGGGVVQPGGSLRLSCAASGRTFSSYRMGWFRQAPGKEREFVAALSGDGYSTYTANSVKGRFTISRDNSKNTVYLQMNSLRPEDTALYYCAAKLQYVSGWSYDYPYWGQGTLVTVSSGGGGSGGGSEVQLVESGGGVVQPGGSLRLSCAASGFTFRSFGMSWVRQAPGKGPEWVSSISGSGSDTLYADSVKGRFTISRDNSKNTLYLQMNSLRPEDTALYYCTIGGSLSRSSQGTLVTVSSGGGGSGGGSEVQLVESGGGVVQPGGSLRLSCAASGFTFNNYAMKWVRQAPGKGLEWVSSITTGGGSTDYADSVKGRFTISRDNSKNTLYLQMNSLRPEDTALYYCANVPFGYYSEHFSGLSFDYRGQGTLVTVSSA
notes: Tetravalent, trispecific single-chain construct of four VHH (ISVD) domains: one against OX40L, two against IL-13, one against serum albumin; also called F0271000187; F27100187
